Results as given in article PMC11524475.

Target: NbNRC2-6xHis-3xFLAG, affinity-purified from N. benthamiana leaves (Nicotiana benthamiana)
Assay: SEC; purified NbNRC2-6xHis-3xFLAG on Superdex 200 Increase 10/300 GL, 25 mM Tris-HCl pH 8, 500 mM NaCl, 5% glycerol, 1 mM EDTA, 4°C; size estimated from a protein standard curve

“NbNRC2-6xHis-3xFLAG, affinity-purified from N. benthamiana leaves (natural protein)” showed a stoichiometry N of 2.
